Measured values as given in article PMC9993113, “Assay development and inhibition of the Mt-DprE2 essential reductase from Mycobacterium tuberculosis” (Microbiology, 2023).

Legend:
[1] = tested on: NC(=O)C1=CN([C@@H]2O[C@H](COP(=O)(O)OP(=O)(O)OC[C@H]3O[C@@H](n4cnc5c(N)ncnc54)[C@H](O)[C@@H]3O)[C@@H](O)[C@H]2O)C=CC1; test: purified protein; conditions: varied: cofactor
[2] = tested on: NC(=O)C1=CN([C@@H]2O[C@H](COP(=O)(O)OP(=O)(O)OC[C@H]3O[C@@H](n4cnc5c(N)ncnc54)[C@H](OP(=O)(O)O)[C@@H]3O)[C@@H](O)[C@H]2O)C=CC1; test: purified protein; conditions: varied: cofactor
[3] = tested on: CC(C)=CCC/C(C)=C/CC/C(C)=C/CC/C(C)=C/COP(=O)(O)O[C@@H]1O[C@H](CO)[C@@H](O)[C@H]1O; test: purified protein; conditions: FAD
Mt-DprE1 = molecular target: T1, Mt-DprE1 (Mycobacterium tuberculosis, UniProt P9WJF1); test: resazurin-based DprE1 enzyme assay with GGPR substrate; format: biochemical
T1 construct: N-terminal hexa-his tag
T1 sequence (P9WJF1 whole entry): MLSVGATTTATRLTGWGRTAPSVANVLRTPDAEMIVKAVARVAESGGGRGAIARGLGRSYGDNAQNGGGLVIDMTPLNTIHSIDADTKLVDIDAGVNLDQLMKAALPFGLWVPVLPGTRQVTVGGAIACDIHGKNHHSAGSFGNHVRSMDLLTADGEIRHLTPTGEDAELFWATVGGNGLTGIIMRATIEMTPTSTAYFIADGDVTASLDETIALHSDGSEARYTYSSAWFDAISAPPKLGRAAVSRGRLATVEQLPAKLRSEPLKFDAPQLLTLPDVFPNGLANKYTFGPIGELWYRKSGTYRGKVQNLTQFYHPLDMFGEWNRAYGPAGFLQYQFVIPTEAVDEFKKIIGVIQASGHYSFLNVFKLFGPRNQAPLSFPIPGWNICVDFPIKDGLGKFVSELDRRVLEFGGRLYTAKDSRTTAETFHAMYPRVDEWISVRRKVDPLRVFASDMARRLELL

Mt-DprE2 (Mycobacterium tuberculosis H37Rv)
Km [1]: 10.5 ± 5.6 µM | Vmax [1]: 14.3 µM/min | Km [2]: 34.6 ± 11.2 µM | Vmax [2]: 11.2 µM/min

Mt-DprE1 (Mycobacterium tuberculosis H37Rv)
Km [3]: 36.9 ± 0.7 µM | Vmax [3]: 35.8 µM/min

BTZ
IC50 (Mt-DprE1): 5.7 ± 0.5 µM
